# Key:
# [1] = target: β1-pTpT peptide, N-terminally desthiobiotinylated; assay: pull-down; desthiobiotinylated β1-tail peptides on Dynabeads MyOne Streptavidin C1; 0.5 mg whole cell lysate in MPER with protease and phosphatase inhibitors, 4°C; Western blot and densitometry
# [2] = target: talin-1 head domain (THD) head domain (UniProt P26039); assay: streptavidin-bead peptide pull-down, Western blot; conditions: reference: β1-WT tail peptide; sites T788,T789
# kindlin-2 [3] = target: kindlin-2 (UniProt Q8CIB5); assay: streptavidin-bead peptide pull-down, Western blot; conditions: reference: β1-WT tail peptide; sites T788,T789
# [4] = target: talin-1 head domain (THD) head domain (UniProt P26039); assay: microscale thermophoresis, Atto488-labeled peptides; conditions: reference: β1-WT tail peptide; sites T788,T789
# kindlin-2 [5] = target: kindlin-2 (UniProt Q8CIB5); assay: as above; conditions: reference: β1-WT tail peptide; sites T788,T789
# SNX17 = SNX17 (UniProt Q8BVL3); assay: biotinylated peptide pull-down from cell lysate; conditions: reference: β1-WT tail peptide; sites T788,T789
# kindlin-2 [6] = target: kindlin-2 (UniProt Q8CIB5); assay: biotinylated peptide pull-down from cell lysate; conditions: reference: β1-WT tail peptide; sites T788,T789
binding in percent of that to β1-WT (densitometry) [1],binding against the reference [2],binding against the reference (kindlin-2 [3]),binding against the reference [4],binding against the reference (kindlin-2 [5]),percent of reference (SNX17),percent of reference (kindlin-2 [6]),Substance
27%,–,–,–,–,–,–,endogenous kindlin-2 (from UniProt Q8CIB5 1-680) (natural protein)
–,same,lost,same,lost,60%,27%,"β1 integrin (cytoplasmic tail, β1-tail) cytoplasmic tail (from UniProt P09055) β1-pTpT tail peptide"

# From PMC8761493, “New insights into the phosphorylation of the threonine motif of the β1 integrin cytoplasmic domain” (Life Science Alliance, 2022)
